T1: human CD3 expressed on cells (Jurkat, a CD3+ human T-cell line; human T cells) (human, UniProt P07766 23-126; P04234 22-100)
T1 chain 1: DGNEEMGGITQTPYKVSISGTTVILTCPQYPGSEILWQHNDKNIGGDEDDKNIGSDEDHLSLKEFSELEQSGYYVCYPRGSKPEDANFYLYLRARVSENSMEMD
T1 chain 2: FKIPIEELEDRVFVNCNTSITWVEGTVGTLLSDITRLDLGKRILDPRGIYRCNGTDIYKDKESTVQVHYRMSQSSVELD

B1: H2M2690N (antibody, mouse IgG2, V domains shown)
VH: EVQLVESGGGLVQPGRSLRLSCAASGFTFDDYTMHWVRQAPGKGLEWVSGISWNSGSIGYADSVKGRFTISRDNAKKSLYLQMNSLRAEDTALYYCAKDNSGYGHYYYGMDVWGQGTTVTVAS
VL: EIVMTQSPATLSVSPGERATLSCRASQSVSSNLAWYQQKPGQAPRLLIYGASTRATGIPARFSGSGSGTEFTLTISSLQSEDFAVYYCQHYINWPLTFGGGTKVEIK
B2: H2M2707N (antibody, mouse IgG2, V domains shown)
VH: QVQLVESGGGVVQPGRSLRLSCIASGFTFRSYGMHWVRQAPGKGLEWVAMIYYDGNNKYYADSVRGRFTISRDNSKNTLYLQMNSLRADDTAVYFCARGPGYNWLDPWGQGTLVTVSS
VL: EIVMTQSPATLSVSPGERATLSCRASQSVSSNLAWYQQKPGQAPRLLIYGASTRATGIPARFSGSGSGTEFTLTISSLQSEDFAVYYCQQYNNRPLTFGGGTKVEIK
B3: H2M2691N (antibody, mouse IgG2, V domains shown)
VH: EVQLVESGGGLVQPGRSLRLSCAASGFTFDDYTMHWVRQAPGKGLEWVSGISWNSGSIGYADSVKGRFTISRDNAKKSLYLQMNSLRAEDTALYYCAKDNSGYGHYYYGMDVWGQGTTVTVAS
VL: EIVMTQSPATLSVSPGERATLSCRASQSVSSNLAWYQQKPGQAPRLLIYGASTRATGIPARFSGSGSGTEFTLTISSLQSEDFAVYYCQHYINWPLTFGGGTKVEIK
B4: H1M2712N (antibody, mouse IgG1, V domains shown)
VH: EVQLVESGGGLVQPGGSLRLSCAATGFTFDDFTMHWVRQAPGKGLEWVSGISWNSGSIGYVDSVKGRFTISRDNAKNSLYLQMNSLRAEDTALYYCAKDNSGYGYYYYGMDVWGQGTTVTVSS
VL: EIVMTQSPATLSVSPGERATLSCRASHSVSRNSAWYQQKPGQAPRLLIYGASTRATGIPARFSGSGSGTEFTLTISSLQSEDFAIYYCQQYNNWPLTFGGGTKVEIK
B5: H2M2708N (antibody, mouse IgG2, V domains shown)
VH: QVQLVESGGGVVQPGRSLRLSCAASGFTFRSFGMHWVRQAPGRGLEWVAMIYFDGKNKYYADSVRGRFTISRDNSKNTLYLEMSSLRAEDTAVYFCARGPGYNWLDPWGQGTLVTVSS
VL: EIVMTQSPATLSVSPGERVTLSCRASQSISRNLAWYQQKPGQAPRLLIYGASTRATGVPARFSGSGSGTEFTLTISSLQSEDFAVFHCQQYNNRPLTFGGGTEVEIK
B6: H1M2692N (antibody, mouse IgG1, V domains shown)
VH: EVQLVESGGGLVQPGGSLRLSCAASGFSFDDYTMHWVRQPPGKGLEWVSGISWNSGSIGYADSVKGRFTISRDNAKNSLYLQMNSLRAGDTALYYCAKDNSGYGYYYYYGMDVWGQGTTVTVSS
VL: EIVMTQSPATLSVSPGERATLSCRASQSVSSNLAWYQQKPGQAPRLLIYGASTRATGIPARFSGSGSGTEFTLTISSLQSEDFAVYYCQQYYNWPLTFGGGTKVEIK
B7: H2M2774N (antibody, mouse IgG2, V domains shown)
VH: QVQLVESGGGVVQPGRSLRLSCVASGFTFRSYGMHWVRQAPGKGLQWVAMIYYDGKNKYYADSVRGRFTISRDNSKNTLYLQMNSLRAEDTAMYFCARGPGYNWLDPWGQGTLVTVSS
VL: EIVMTQSPATLSVSPGERATLSCRASQRISSNLAWYQQKPGQAPRLLIYGASTRATGSPARFSGSGSGTEFTLTISSLQSEDVAVYYCQQHNNWPLTFGGGTKVEIK
B8: H2M2777N (antibody, mouse IgG2, V domains shown)
VH: QVQLVESGGGVVQPGRSLRLSCIASGFTFRSYGMHWVRQAPGKGLEWVAMIYYDGNNKYYADSVRGRFTISRDNSKNTLYLQMNSLRADDTAVYFCARGPGYNWLDPWGQGTLVTVSS
VL: EIVMTQSPATLSVSPGERATLSCRASQSVSSNLAWYQQKPGQAPRLLIYGASTRATGIPARFSGSGSGTEFTLTISSLQSEDFAVYYCQQYNNRPLTFGGGTKVEIK
B9: H2M2706N (antibody, mouse IgG2, V domains shown)
VH: QVQLVESGGGVVQPGRSLRLSCAASGFTFRSYAMHWVRQAPGKGLEWVAMVYYDGNNQYYADSVRGRFTISRDNSKNTLYLQMNSLRADDTAVYFCARGPGYNWLDPWGQGTLVTVSS
VL: EIVMTQSPATLSVSPGERATLSCRASQSVSRNLAWYQQKPGQAPRLLIYGASTRATGIPARFSGSGSGTDFTLTISSLQSEDFAVYYCQQYNNWPLTFGGGTKVVIK
B10: H2M2779N (antibody, V domains shown)
VH: EVQLVESGGGLVQPGGSLRLSCAATGFTFDDFTMHWVRQAPGKGLEWVSGISWNSGSIGYVDSVKGRFTISRDNAKNSLYLQMNSLRAEDTALYYCAKDNSGYGYYYYGMDVWGQGTTVTVSS
VL: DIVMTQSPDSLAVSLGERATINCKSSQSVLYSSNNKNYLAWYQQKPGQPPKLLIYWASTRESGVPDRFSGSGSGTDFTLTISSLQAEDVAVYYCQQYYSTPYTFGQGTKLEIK
B11: H2M2862N (antibody, mouse IgG2, V domains shown)
VH: QVQLVESGGGVVQPGRSLRLSCAASGFTFRSYGMHWVRQAPGKGLEWVAMIYYDGNNKKYADSVRGRFTISRDNSKNTLYLQMNSLRVEDTAVYFCARGPGYNWLDPWGQGTLVTVSS
VL: EIVMTQSPATLSVSPGERATLSCRASQSVSRNLAWYQQKPGQAPRLLIYGASTRATDIPARFSGSGSGTEFILNISSLQSEDFALYYCQQYSNWPLTFGGGTEVEIK
B12: H2M2886N (antibody, mouse IgG2, V domains shown)
VH: QVQLVESGGGVVQPGRSLRLSCAASGFTFRSFGMHWVRQAPGRGLEWVAMIYFDGKNKYYADSVRGRFTISRDNSKNTLYLEMSSLRAEDTAVYFCARGPGYNWLDPWGQGTLVTVSS
VL: EIVMTQSPATLSVSPGERVILSCRASQSISRNLAWYQQKPGQAPRLLIYGATTRATGVPARFSGSGSGTEFTLTISSLQSEDFAVFYCQQYNNRPLTFGGGTEVEIK
B13: H2M2885N (antibody, mouse IgG2, V domains shown)
VH: QVQLVESGGGVVQPGRSLRLSCAASGFTFRSFGMHWVRQAPGRGLEWVAMIYFDGKNKYYADSVRGRFTISRDNSKNTLYLEMSSLRAEDTAVYFCARGPGYNWLDPWGQGTLVTVSS
VL: EIVMTQSPATLSVSPGERVILSCRASQSISRNLAWYQQKPGQAPRLLIYGATTRATGVPARFSGSGSGTEFTLTISSLQSEDFAVFYCQQYNNRPLTFGGGTEVEIK
B14: H2M2775N (antibody, mouse IgG2, V domains shown)
VH: QVQLVESGGGVVQPGRSLRLSCAASGFTFRSFGMHWVRQAPGRGLEWVAMIYFDGKNKYYADSVRGRFTISRDNSKNTLYLEMSSLRAEDTAVYFCARGPGYNWLDPWGQGTLVTVSS
VL: EIVMTQSPATLSVSPGERVILSCRASQSISRNLAWYQQKPGQAPRLLIYGATTRATGVPARFSGSGSGTEFTLTISSLQSEDFAVFYCQQYNNRPLTFGGGTEVEIK
B15: H2M2711N (antibody, V domains shown)
VH: QVQLVESGGGVVQPGRSLRLSCAASGFTFRSFGMHWVRQAPGRGLEWVAMIYFDGKNKYYADSVRGRFTISRDNSKNTLYLEMSSLRAEDTAVYFCARGPGYNWLDPWGQGTLVTVSS
VL: EIVMTQSPATLSVSPGERATLSCRASQSVSRNLAWYQQKPGQAPRLLIYGASTRATGVPARFSGSGSGTEFTLTISSLQSEDFAVFHCQQYNNRPLTFGGGTEVEIK
B16: H2M2710N (antibody, V domains shown)
VH: QVQLVESGGGVVQPGRSLRLSCAASGFTFRSFGMHWVRQAPGRGLEWVAMIYFDGKNKYYADSVRGRFTISRDNSKNTLYLEMSSLRAEDTAVYFCARGPGYNWLDPWGQGTLVTVSS
VL: EIVMTQSPATLSVSPGERATLSCRASQSVSRNLAWYQQKPGQAPRLLIYGASTRATGVPARFSGSGSGTEFTLTISSLQSEDFAVFHCQQYNNRPLTFGGGTEVEIK
B17: H2M3540N (antibody, mouse IgG2, V domains shown)
VH: QVHLEESGGGVVQPGRSLRLSCSASGFTFSSYAMHWVRQAPGKGLEWVAVIWYDGTNKYYLDSVKGRFTISRDNSKNTLFLQMNSLRAEDTAVYYCARDRGSIITHWGQGTLVTVSS
VL: DIQMTQSPSSLSASIGDRVTITCRASQNISSYLNWYQQKPGKAPKLLIYAASSLQSGVPSRFSGSGSGTDFTLTISSLQPEDFATYYCQQTYSTPPITFGQGTRLEIK
B18: H2M3543N (antibody, mouse IgG2, V domains shown)
VH: EVQLVESGGGLVQPGRSLRLSCAASGFTFDDYTMHWVRQAPGKGLEWVSDISWNSGSIGYADSVKGRFTVSRDNAKNSLYLQMNSLRGEDTALYYCAKDMSGYAHYGYYGMDVWGQGTTVTVSS
VL: DIQMTQSPSSLSASVGDRVTITCRASQSIRNYLNWYQQKPGKVPKLLIYAASSLQSGVPSRFSGSGSGTDFTLTISSLQPEDFATYYCQQSYSNPPITFGQGTRLEIK
B19: H2M3541N (antibody, mouse IgG2, V domains shown)
VH: EVQLVESGGGLVRPGRSLRLSCAASGFTFDDYTMHWVRQAPGKGLEWVSDISWNSGTIGYADSVKGRFTISRDNAKNSLYLQMNSLRPEDTALYYCAKDMSGYAHYYYYGMDVWGQGTTVTVSS
VL: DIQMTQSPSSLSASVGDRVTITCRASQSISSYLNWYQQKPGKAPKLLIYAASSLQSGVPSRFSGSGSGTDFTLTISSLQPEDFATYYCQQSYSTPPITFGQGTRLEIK
B20: H1M3542N (antibody, mouse IgG1, V domains shown)
VH: EVQLVESGGGLVQPGRSLRLSCVASGFPFADYTMHWVRQAPGKGLEWVSDISWNSGSKGYADSVKGRFTISRDNAKNSLYLQMNSLRTEDTAFYYCAKDMSGYAHYFYYGMDVWGQGTTVTVSS
VL: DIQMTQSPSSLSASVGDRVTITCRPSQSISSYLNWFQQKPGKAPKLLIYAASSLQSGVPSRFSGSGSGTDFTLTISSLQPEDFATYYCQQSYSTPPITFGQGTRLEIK
B21: H2M3547N (antibody, mouse IgG2, V domains shown)
VH: EAQLVESGGGLVQPGRSLRLSCTTSGFTFDDYTMHWVRQAPGKGLEWISDISWNGGTKGYADSVKGRFTISRDNAKNSLYLQMDSLRGEDTALYYCVKDKSGYGHFYFGLDVWGQGTTVTVSS
VL: DIQMTQSPSSLTASVGDRVTFTCRASQSISRHLSWYQQKPGKAPKLLIYAASSLESGVPSRFSGSGSGTDFTLTISSLHPEDFATYYCQQSYSNPPITFGQGTRLEIK
B22: H2M3548N (antibody, mouse IgG2, V domains shown)
VH: EVQLVESGGGLVQPGRSLRLSCAASGFKFADYAMHWVRQAPGKGLEWVSEISWNSGSIGYVDSVKGRFTISRDNAKNSLYLQMNSLRAEDTALYYCVKDKSGYGHYYIGMDVWGQGTTVIVSS
VL: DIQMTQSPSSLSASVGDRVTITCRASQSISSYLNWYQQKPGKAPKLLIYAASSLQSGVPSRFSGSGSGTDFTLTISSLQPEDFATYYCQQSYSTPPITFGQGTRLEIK

Target: T1, human CD3 expressed on cells (Jurkat, a …)
Assay: cell-based or functional assay

Going from B1 to B2, the “U937 Cytotoxicity Human T-cells [M] (EC50)” value falls from 2.79e-11 M to 7.21e-12 M (3.9-fold).

First: B3
Second: B4
The “U937 Cytotoxicity Human T-cells [M] (EC50)” value of the first is 13-fold lower: 2.34e-11 M for the first, 3.14e-10 M for the second.

Compared with B5, B6 is 110-fold higher in “U937 Cytotoxicity Human T-cells [M] (EC50)” value: 3.27e-12 M for the first, 3.59e-10 M for the second.

First: B7
Second: B8
The “U937 Cytotoxicity Human T-cells [M] (EC50)” value of the first is 2-fold lower: 2.46e-12 M for the first, 4.86e-12 M for the second.

Compared with B9, B10 is 85-fold higher in “U937 Cytotoxicity Human T-cells [M] (EC50)” value: 7.91e-12 M for the first, 6.75e-10 M for the second.

B11 and B12 are within 1.5-fold of each other in “U937 Cytotoxicity Human T-cells [M] (EC50)” value: 7.66e-12 M for the first, 8.06e-12 M for the second.

B13 and B14 are within 1.5-fold of each other in “U937 Cytotoxicity Human T-cells [M] (EC50)” value: 3.71e-12 M for the first, 3.38e-12 M for the second.

B15 and B16 are within 1.5-fold of each other in “U937 Cytotoxicity Human T-cells [M] (EC50)” value: 3.66e-12 M for the first, 3.97e-12 M for the second.

B17 and B18 are within 1.5-fold of each other in “U937 Cytotoxicity Human T-cells [M] (EC50)” value: 1.25e-11 M for the first, 1.31e-11 M for the second.

First: B19
Second: B20
The “U937 Cytotoxicity Human T-cells [M] (EC50)” value of the first is 1.8-fold higher: 5.39e-11 M for the first, 2.92e-11 M for the second.

First: B21
Second: B22
The “U937 Cytotoxicity Human T-cells [M] (EC50)” value of the first is 5.8-fold higher: 3.17e-11 M for the first, 5.5e-12 M for the second.

From US20260132200A1 (Regeneron, published 2026)
